We go through ten molecules from patent US7276582 (JAPAN SCIENCE AND TECHNOLOGY AGENCY, dated 2007).

In assay [1] the target is T1, MD2 bait construct (mIP3R1: 1387-1647 amino acids) in pGBT9 (mouse, UniProt P11881 1387-1647).
T1 construct: also called IP3R1 modulatory domain bait 2; not shown: fusion partner encoded by the bait vector pGBT9 and primer-encoded linker
The assay is described as follows: yeast two-hybrid beta-gal assay. The method, then:
To determine the respective interaction domains of CARP and IP_3R1, truncated mutants of both genes were prepared and analyzed using yeast two-hybrid system. […] Interactions between CARP mutants and MD2, CARP and IP_3R1 mutants were analyzed by β-gal assay by the yeast two-hybrid system. The prepared mutant and results of β-gal assay in the yeast two-hybrid system (n=3) are shown in FIG. 5. β-gal assay was evaluated by the time of blue colony appearance, i.e., blue colony appears within 30 min (+++), 2 h (++) and 8 hr (+).
Yeast two-hybrid assay in the following examples was conducted using MATCHJMAKER™ Two-Hybrid system according to the manufacturer's protocol (Clontech Laboratories Inc., Palo Alto, Calif., USA).

For assay [2], the target named is T1, MD2 bait construct (mIP3R1: 1387-1647 …). The assay can be described thus: yeast two-hybrid screen of a mouse brain cDNA library with MD2 as bait.
A further assay deals with T2, GST (UniProt P08515 1-218 = GST, limits assumed).
T2 construct: Control for the GST fusion proteins; its source is not described; also called GST alone; glutathione S-transferase
The assay can be described thus: GST pull-down from mouse cerebellar cytosolic fraction, Western blot with anti-CARP antibody. From the text: Next, the inventors of the present application examined the interaction between CARP and IP_3R1 by means of a pull-down method in order to obtain further evidence for the interaction by biochemical methods. The inventors first developed expression system in Sf9 cells, and made IP_3R1 soluble by removing the channel domain. The soluble IP_3R1, designated GST-EL, covers both the ligand binding domain and modulatory domain (amino acids 1-2217 Of mIP_3R1) and has GST in its N terminus. Mouse cerebellar cytosolic fraction was incubated with GST-EL or GST, and binding of CARP to the recombinant proteins was analyzed by immunoblotting with anti-CARP antibody. The results are shown in photographs of FIG. 4 which are substituted for drawings.
Adult mouse cerebella were homogenized in 10 mM HEPES (pH 7.4), 320 mM Sucrose, 2 mM EDTA, 1 mM 2-mercaptoethanol, and protease inhibitors and the homogenate was centrifuged at 1,000× g for 10 min. The supernatant was centrifuged at 100,000× g for 60 min to obtain the cytosolic fraction (the supernatant) and the crude microsome (the pellet). The cytosolic fraction was added with 100 mM NaCl, and incubated with 20 μg of GST-EL or GST for 2 hours at 4° C. […] The eluted proteins were analyzed by Western blotting with anti-CARP antibody.
A general note: A western blot detects proteins with antibodies after separation by electrophoresis.

T1 sequence (P11881 1387-1647): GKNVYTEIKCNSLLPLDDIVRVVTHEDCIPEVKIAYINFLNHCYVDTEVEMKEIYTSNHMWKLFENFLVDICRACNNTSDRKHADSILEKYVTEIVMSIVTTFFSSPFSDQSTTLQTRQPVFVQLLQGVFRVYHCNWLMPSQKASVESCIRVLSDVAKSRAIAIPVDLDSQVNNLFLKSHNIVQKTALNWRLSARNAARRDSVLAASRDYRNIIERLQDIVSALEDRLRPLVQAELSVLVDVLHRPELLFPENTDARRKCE
T2 sequence (P08515 whole entry, the tested form may be a part): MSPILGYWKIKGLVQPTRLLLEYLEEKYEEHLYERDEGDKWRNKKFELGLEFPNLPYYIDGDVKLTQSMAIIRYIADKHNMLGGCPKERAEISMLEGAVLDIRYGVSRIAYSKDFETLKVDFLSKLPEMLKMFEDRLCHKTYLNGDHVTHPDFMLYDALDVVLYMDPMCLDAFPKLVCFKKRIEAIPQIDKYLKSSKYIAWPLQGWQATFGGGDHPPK

B1: pGAD-GL-ΔC3 (CARP; 1-170 amino acids) (other)
chain: MADLSFIEDAVAFPEKEEDEEEEEEEGVEWGYEEGVEWGLVFPDANGEYQSPINLNSREARYDPSLLDVRLSPNYVVCRDCEVTNDGHTIQVILKSKSVLSGGPLPGGQEFELYEVRFHWGRENQRGSEHTVNFKAFPMELHLIHWNSTLFGSIDEAVGKPHGIAIIALF
notes: Yeast two-hybrid truncation construct; not shown: fusion partner encoded by vector pGAD-GL
With B1, the binding result in assay [1] is on record as “no binding”.

B2: carbonic anhydrase-related protein (CARP), full-length, yeast two-hybrid prey in pGAD-GL (other)
chain: MADLSFIEDAVAFPEKEEDEEEEEEEGVEWGYEEGVEWGLVFPDANGEYQSPINLNSREARYDPSLLDVRLSPNYVVCRDCEVTNDGHTIQVILKSKSVLSGGPLPGGQEFELYEVRFHWGRENQRGSEHTVNFKAFPMELHLIHWNSTLFGSIDEAVGKPHGIAIIALFVQIGKEHVGLKAVTEILQDIQYKGKSKTIPCFNPNTLLPDPLLRDYWVYEGSLTIPPCSEGVTWILFRYPLTISQMQIEEFRRLRTHVKGVELVEGCDGILGDNFRPTQPLSDRVIRAAFQ
notes: 13 positive clones from a mouse brain cDNA library; they contain different lengths of 5'UTR of CARP cDNA followed by a full-length coding region in frame; also called mouse CARP; not shown: fusion partner encoded by the library vector pGAD-GL (and in-frame 5'UTR of differing length); not described in the fili
Take B2: the binding result in assay [2] was “binds”.

B3: CARP of the cytosolic fraction of mouse cerebellum (other)
chain: B2 chain
notes: Endogenous protein in a tissue fraction, detected by Western blotting with anti-CARP polyclonal antibody; also called endogenous CARP
For B3, the binding result in the assay with GST was “no binding (tested: 20 µg of GST)”.

B4: pGAD-GL-ΔC8 (CARP; 121-291 amino acids) (other)
chain: GRENQRGSEHTVNFKAFPMELHLIHWNSTLFGSIDEAVGKPHGIAIIALFVQIGKEHVGLKAVTEILQDIQYKGKSKTIPCFNPNTLLPDPLLRDYWVYEGSLTIPPCSEGVTWILFRYPLTISQMQIEEFRRLRTHVKGVELVEGCDGILGDNFRPTQPLSDRVIRAAFQ
notes: as for B1
Consider B4, for which the binding result in assay [1] was “no binding”.

B5: pGAD-GL-ΔC2 (CARP; 1-147 amino acids) (other)
chain: MADLSFIEDAVAFPEKEEDEEEEEEEGVEWGYEEGVEWGLVFPDANGEYQSPINLNSREARYDPSLLDVRLSPNYVVCRDCEVTNDGHTIQVILKSKSVLSGGPLPGGQEFELYEVRFHWGRENQRGSEHTVNFKAFPMELHLIHWN
notes: as for B1
Turning to B5, the binding result in assay [1] is on record as “no binding”.

B6: pGAD-GL-ΔC4 (CARP; 1-180 amino acids) (other)
chain: MADLSFIEDAVAFPEKEEDEEEEEEEGVEWGYEEGVEWGLVFPDANGEYQSPINLNSREARYDPSLLDVRLSPNYVVCRDCEVTNDGHTIQVILKSKSVLSGGPLPGGQEFELYEVRFHWGRENQRGSEHTVNFKAFPMELHLIHWNSTLFGSIDEAVGKPHGIAIIALFVQIGKEHVGL
notes: as for B1
With B6, the binding result in assay [1] was “no binding”.

B7: pGAD-GL-ΔC6 (CARP; 1-234 amino acids) (other)
chain: MADLSFIEDAVAFPEKEEDEEEEEEEGVEWGYEEGVEWGLVFPDANGEYQSPINLNSREARYDPSLLDVRLSPNYVVCRDCEVTNDGHTIQVILKSKSVLSGGPLPGGQEFELYEVRFHWGRENQRGSEHTVNFKAFPMELHLIHWNSTLFGSIDEAVGKPHGIAIIALFVQIGKEHVGLKAVTEILQDIQYKGKSKTIPCFNPNTLLPDPLLRDYWVYEGSLTIPPCSEGVTW
notes: as for B1
Take B7: the binding result in assay [1] is recorded as “no binding”.

B8: pGAD-GL-ΔC9 (CARP; 184-291 amino acids) (other)
chain: TEILQDIQYKGKSKTIPCFNPNTLLPDPLLRDYWVYEGSLTIPPCSEGVTWILFRYPLTISQMQIEEFRRLRTHVKGVELVEGCDGILGDNFRPTQPLSDRVIRAAFQ
notes: as for B1
As to B8, the binding result in assay [1] is recorded as “no binding”.

B9: pGAD-GL-ΔC1 (CARP; 1-127 amino acids) (other)
chain: MADLSFIEDAVAFPEKEEDEEEEEEEGVEWGYEEGVEWGLVFPDANGEYQSPINLNSREARYDPSLLDVRLSPNYVVCRDCEVTNDGHTIQVILKSKSVLSGGPLPGGQEFELYEVRFHWGRENQRG
notes: as for B1
Consider B9, for which the binding result in assay [1] is listed as “no binding”.

B10: pGAD-GL-ΔC5 (CARP; 1-217 amino acids) (other)
chain: MADLSFIEDAVAFPEKEEDEEEEEEEGVEWGYEEGVEWGLVFPDANGEYQSPINLNSREARYDPSLLDVRLSPNYVVCRDCEVTNDGHTIQVILKSKSVLSGGPLPGGQEFELYEVRFHWGRENQRGSEHTVNFKAFPMELHLIHWNSTLFGSIDEAVGKPHGIAIIALFVQIGKEHVGLKAVTEILQDIQYKGKSKTIPCFNPNTLLPDPLLRDYW
notes: as for B1
For the molecule B10, the binding result in assay [1] was “no binding”.
